Assays:
[1] = biological target: transgenic membrane IgM and IgD specific for HEL on mouse B cells; assay: cell-based or functional assay
[2] = biological target: transgenic membrane IgM and IgD specific for HEL on mouse B cells; assay: transgenic B cells incubated with 3 nM protein for 10 min, free sites read by subsequent binding of fluorescein-conjugated HEL
[3] = biological target: CD21 on mouse B cells (mouse) (UniProt P19070); assay: cell-based or functional assay
[4] = biological target: CD21 on Raji B lymphoblastoid cells (human) (UniProt P20023); assay: 50% inhibition of specific binding of [125I]HEL-C3d2 to Raji cells expressing CD21; two experiments
Sequence of CD21 on Raji B lymphoblastoid cells (human) (P20023 21-1033): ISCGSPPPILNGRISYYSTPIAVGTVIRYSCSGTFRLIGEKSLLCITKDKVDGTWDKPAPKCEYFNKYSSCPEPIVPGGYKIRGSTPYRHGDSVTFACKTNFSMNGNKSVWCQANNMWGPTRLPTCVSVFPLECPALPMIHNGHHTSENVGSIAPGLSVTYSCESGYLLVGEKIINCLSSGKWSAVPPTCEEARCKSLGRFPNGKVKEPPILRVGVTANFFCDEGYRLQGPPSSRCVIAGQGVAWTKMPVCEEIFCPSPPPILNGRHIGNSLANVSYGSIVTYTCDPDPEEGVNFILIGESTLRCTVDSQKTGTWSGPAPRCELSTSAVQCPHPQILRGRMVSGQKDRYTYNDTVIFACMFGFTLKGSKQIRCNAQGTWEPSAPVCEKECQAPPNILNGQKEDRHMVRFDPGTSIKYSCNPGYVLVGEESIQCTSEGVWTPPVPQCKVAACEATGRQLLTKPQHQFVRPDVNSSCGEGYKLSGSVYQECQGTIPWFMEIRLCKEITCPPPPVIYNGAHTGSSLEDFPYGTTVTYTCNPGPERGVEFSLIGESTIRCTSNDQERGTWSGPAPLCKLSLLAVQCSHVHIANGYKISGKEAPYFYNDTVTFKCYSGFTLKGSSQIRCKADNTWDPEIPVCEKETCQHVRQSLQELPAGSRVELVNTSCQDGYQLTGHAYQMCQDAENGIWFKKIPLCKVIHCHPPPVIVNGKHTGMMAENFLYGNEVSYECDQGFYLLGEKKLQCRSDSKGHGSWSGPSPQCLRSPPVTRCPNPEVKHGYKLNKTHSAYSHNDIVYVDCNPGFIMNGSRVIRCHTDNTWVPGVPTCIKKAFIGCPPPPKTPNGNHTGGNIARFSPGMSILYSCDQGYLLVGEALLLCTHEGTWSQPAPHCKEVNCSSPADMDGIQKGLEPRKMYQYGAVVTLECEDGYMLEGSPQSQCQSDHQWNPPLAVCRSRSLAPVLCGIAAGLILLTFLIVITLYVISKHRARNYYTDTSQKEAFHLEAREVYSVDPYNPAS

Sequence of CD21 on mouse B cells (mouse) (P19070 12-1025): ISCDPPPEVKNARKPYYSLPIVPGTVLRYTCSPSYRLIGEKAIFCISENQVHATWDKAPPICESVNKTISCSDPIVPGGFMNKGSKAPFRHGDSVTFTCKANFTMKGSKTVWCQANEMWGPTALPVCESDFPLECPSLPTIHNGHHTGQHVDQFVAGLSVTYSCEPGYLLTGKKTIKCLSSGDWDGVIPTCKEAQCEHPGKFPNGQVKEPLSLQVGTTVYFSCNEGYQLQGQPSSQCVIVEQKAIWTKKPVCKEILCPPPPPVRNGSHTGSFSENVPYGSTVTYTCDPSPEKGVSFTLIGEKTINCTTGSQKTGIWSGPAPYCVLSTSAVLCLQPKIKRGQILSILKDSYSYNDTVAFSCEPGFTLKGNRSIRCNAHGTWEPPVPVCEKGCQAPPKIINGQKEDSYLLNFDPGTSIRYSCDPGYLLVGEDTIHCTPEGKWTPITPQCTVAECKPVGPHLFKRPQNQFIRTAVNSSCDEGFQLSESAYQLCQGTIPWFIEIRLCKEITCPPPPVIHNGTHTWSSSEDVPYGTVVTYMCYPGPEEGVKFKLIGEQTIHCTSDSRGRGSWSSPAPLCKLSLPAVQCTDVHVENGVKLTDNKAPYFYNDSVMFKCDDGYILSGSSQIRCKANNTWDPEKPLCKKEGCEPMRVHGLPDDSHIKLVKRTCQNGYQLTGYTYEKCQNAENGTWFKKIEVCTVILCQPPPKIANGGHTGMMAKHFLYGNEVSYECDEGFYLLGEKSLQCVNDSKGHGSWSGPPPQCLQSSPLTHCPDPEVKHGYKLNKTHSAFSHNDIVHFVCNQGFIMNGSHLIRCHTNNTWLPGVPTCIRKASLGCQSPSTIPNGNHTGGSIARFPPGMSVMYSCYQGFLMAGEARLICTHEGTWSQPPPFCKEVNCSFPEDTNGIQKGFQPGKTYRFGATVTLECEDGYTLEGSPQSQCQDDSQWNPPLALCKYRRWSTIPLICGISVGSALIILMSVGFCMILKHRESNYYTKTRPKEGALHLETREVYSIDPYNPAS

threshold for increase in [Ca2+]i in HEL-specific B cells (nM (printed as '7 n')) [1]	% saturation of the anti-HEL sites [2]	threshold for increase in [Ca2+]i in HEL-specific B cells [3]	IC50 [4]	Substance
7	51%	–	–	recombinant hen egg lysozyme with YL1/2 epitope tag (HEL.YL) (from UniProt P00698 19-147)
–	–	0.7 nM	–	HEL-C3d recombinant fusion protein (hen egg lysozyme fused to one murine C3d) (from UniProt P00698 19-147; P01027 1006-1302)
–	47%	0.007 nM	–	HEL-C3d3 recombinant fusion protein (hen egg lysozyme fused to three murine C3d) (from UniProt P00698 19-147; P01027 1006-1302; P01027 1006-1302; P01027 1006-1302)
–	–	0.07 nM	8 to 20 nM	HEL-C3d2 recombinant fusion protein (hen egg lysozyme fused to two murine C3d) (from UniProt P00698 19-147; P01027 1006-1302; P01027 1006-1302)

From patent US6891027
